Laboratory results as given in patent US5702914, “Use of reporter genes for retinoid receptor screening assays having novel retinoid-associated response elements” (The Salk Institute for Biological Studies).

B1: HOXB1 DR-2A (dsDNA)
DNA 1: TGAACTCTTGCCCT
DNA 2: AGGGCAAGAGTTCA
B2: HOXB1 DR-2B (dsDNA)
DNA 1: CGGGCCTGACCTTTTTACCTCGAAG
DNA 2: CTTCGAGGTAAAAAGGTCAGGCCCG

How the values were obtained:
[1] = molecular target: T1, RAR alpha:RXR alpha heterodimer (Homo sapiens, UniProt P10276;P19793 P10276:1-462,P19793:1-462); test: EMSA; less intense than on DR-5; conditions: tags: rabbit reticulocyte lysate (Promega); from pCMX-hRARalpha and pCMX-hRXRalpha; label: 32P
T1 sequence (P10276 whole entry, chain 1 of 2): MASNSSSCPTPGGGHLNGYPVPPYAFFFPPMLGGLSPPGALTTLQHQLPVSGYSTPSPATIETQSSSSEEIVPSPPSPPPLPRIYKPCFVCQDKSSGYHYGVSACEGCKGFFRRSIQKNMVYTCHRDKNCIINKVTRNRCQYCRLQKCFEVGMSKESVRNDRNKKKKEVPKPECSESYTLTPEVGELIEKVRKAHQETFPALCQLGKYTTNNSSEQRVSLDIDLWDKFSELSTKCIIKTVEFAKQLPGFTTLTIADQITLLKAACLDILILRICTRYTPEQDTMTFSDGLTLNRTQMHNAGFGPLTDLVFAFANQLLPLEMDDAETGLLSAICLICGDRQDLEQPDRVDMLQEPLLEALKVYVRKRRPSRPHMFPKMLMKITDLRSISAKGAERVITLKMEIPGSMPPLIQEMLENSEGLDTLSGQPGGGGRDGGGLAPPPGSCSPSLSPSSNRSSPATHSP
T1 sequence (P19793 whole entry, chain 2 of 2): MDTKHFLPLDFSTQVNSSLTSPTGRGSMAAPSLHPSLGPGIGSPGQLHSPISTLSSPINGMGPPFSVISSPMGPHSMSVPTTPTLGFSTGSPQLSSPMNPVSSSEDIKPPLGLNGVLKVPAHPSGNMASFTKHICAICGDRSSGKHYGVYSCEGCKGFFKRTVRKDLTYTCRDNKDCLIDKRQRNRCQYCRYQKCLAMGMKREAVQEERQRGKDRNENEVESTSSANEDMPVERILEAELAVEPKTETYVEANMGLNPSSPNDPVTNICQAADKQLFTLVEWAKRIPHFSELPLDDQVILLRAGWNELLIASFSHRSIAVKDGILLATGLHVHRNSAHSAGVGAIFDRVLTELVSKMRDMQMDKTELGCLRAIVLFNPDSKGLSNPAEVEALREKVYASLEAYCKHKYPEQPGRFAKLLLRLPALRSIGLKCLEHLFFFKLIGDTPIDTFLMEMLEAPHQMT
Protocol: (§1) Gel retardation assays were carried out according to Kliewer et al. (1992, supra). The plasmids pCMX-hRARα and pCMX-hRXRα (Kliewer et al., 1992, supra) were linearlized and capped mRNA was synthesized in vitro using T7 RNA polymerase (Stratagene) according to manufacturer's instructions. Aliquots of mRNA were incubated with rabbit reticulocyte lysate (Promega) for in vitro translation. For gel retardation assay, 5 µl of in vitro translated proteins were preincubated in binding buffer (10 mM Tris[pH8.0], 40 mM KCl, 0.05% Nonidet P-40, 6% glycerol, 1 mM DTT, 5 µg/ml poly[dI.dC]) on ice for 15 minutes. For competition assays, 20 fold molar excess of competitor oligonucleotides was mixed at this step. Oligonucleotides containing DR-5 (RARβ2RARE), HOXB DR-2A (nucleotides 30–43 of SEQ ID NO:1) and HOXB DR-2B (nucleotides 41–54 of SEQ ID NO:2) were used as competitors and probes. Subsequently, ^32P-labelled oligonucleotide probes were added to the reaction mixtures and incubated on ice for 15 minutes. The same oligonucleotides used for the construction of luciferase plasmids were used. Reaction mixtures were resolved by 5% polyacrylamide gel electrophoresis in 0.5×TBE. The dried gels were autoradiographed at −70° C.
The ability of RAR and RXR to form either homo- or heterodimers on the HOXB1 DR-2A and DR-2B response elements was examined using gel retardation assays. […]

[2] = molecular target: T1, RAR alpha:RXR alpha heterodimer; test: EMSA; less intense than on DR-5; 74-fold RA induction of TK.Luc(DR2B)2 with both receptors in NT2/D1 cells; conditions: tags: rabbit reticulocyte lysate (Promega); from pCMX-hRARalpha and pCMX-hRXRalpha; label: 32P
Protocol: as §1, with “Aliquots” for “Gel retardation assays were carried out according to Kliewer et al. (1992, supra). The plasmids pCMX-hRARα and pCMX-hRXRα (Kliewer et al., 1992, supra) were linearlized and capped mRNA was synthesized in vitro using T7 RNA polymerase (Stratagene) according to manufacturer's instructions. Aliquots”
The ability of RAR and RXR to form either homo- or heterodimers on the HOXB1 DR-2A and DR-2B response elements was examined using gel retardation assays. The expression plasmids pCMX-hRARα and pCMX-hRXRα were linearized with NheI restriction enzyme. Subsequently, capped mRNA was synthesized in vitro using T7 RNA polymerase (Stratagene) according to the manufacturer's instructions. […]

| Binder | binding result [1] | binding result [2] |
| --- | --- | --- |
| B1 | binds |  |
| B2 |  | binds |
